In the Immune Epitope Database (IEDB):

Key:
HLA-A*02:01 = experiment: IEDB peptide-MHC binding, purified MHC/direct/fluorescence; filed as Kd, often an IC50 or EC50 that approximates it; ≥ and ≤ were set here for values at or beyond the usual limits of such assays
HLA-A*02:03 = experiment: as above
HLA-A*02:11 = experiment: as above
HLA-A*02:12 = experiment: as above
HLA-A*02:16 = experiment: as above
HLA-A*02:19 = experiment: as above
HLA-A*03:01 = experiment: as above
HLA-A*24:03 [1] = experiment: as above
HLA-A*26:01 = experiment: as above
HLA-A*29:02 = experiment: as above
HLA-A*69:01 = experiment: as above
HLA-B*15:01 = experiment: as above
HLA-B*15:17 = experiment: as above
HLA-B*18:01 = experiment: as above
HLA-B*27:03 = experiment: as above
HLA-B*46:01 = experiment: as above
HLA-B*51:01 [2] = experiment: as above
HLA-B*57:01 = experiment: as above
HLA-A*23:01 = experiment: as above; details: source organism: Toxoplasma gondii
HLA-A*68:02 = experiment: as above; details: source organism: Toxoplasma gondii
HLA-B*39:01 = experiment: as above
HLA-C*08:02 = experiment: as above; details: source organism: Vaccinia virus WR
HLA-C*12:03 = experiment: as above; details: source organism: Vaccinia virus WR
HLA-B*51:01 [3] = experiment: IEDB peptide-MHC binding, purified MHC/competitive/fluorescence; filed as Kd, often an IC50 or EC50 that approximates it; ≥ and ≤ were set here for values at or beyond the usual limits of such assays; details: source organism: Vaccinia virus WR
HLA-C*05:01 = experiment: IEDB peptide-MHC binding, purified MHC/direct/fluorescence; filed as Kd, often an IC50 or EC50 that approximates it; ≥ and ≤ were set here for values at or beyond the usual limits of such assays; details: source organism: Variola virus
HLA-B*07:02 = experiment: IEDB peptide-MHC binding, purified MHC/competitive/radioactivity; filed as Kd, often an IC50 or EC50 that approximates it; ≥ and ≤ were set here for values at or beyond the usual limits of such assays; details: source organism: Vaccinia virus WR
HLA-B*35:01 = experiment: as above; details: source organism: Vaccinia virus WR
HLA-B*51:01 [4] = experiment: as above; details: source organism: Vaccinia virus WR
HLA-B*53:01 = experiment: as above; details: source organism: Vaccinia virus WR
HLA-B*54:01 = experiment: as above; details: source organism: Vaccinia virus WR
HLA-C*14:02 = experiment: IEDB peptide-MHC binding, purified MHC/direct/fluorescence; filed as Kd, often an IC50 or EC50 that approximates it; ≥ and ≤ were set here for values at or beyond the usual limits of such assays
HLA-A*24:03 [5] = experiment: IEDB peptide-MHC binding, purified MHC/competitive/fluorescence; filed as Kd, often an IC50 or EC50 that approximates it; ≥ and ≤ were set here for values at or beyond the usual limits of such assays; details: source organism: Escherichia coli str. K-12 substr. MG1655
HLA-C*03:03 = experiment: IEDB peptide-MHC binding, purified MHC/direct/fluorescence; filed as Kd, often an IC50 or EC50 that approximates it; ≥ and ≤ were set here for values at or beyond the usual limits of such assays; details: source organism: Campylobacter jejuni subsp. jejuni 81-176
HLA-C*15:02 = experiment: as above
HLA-C*06:02 = experiment: as above; details: source organism: Cryptosporidium parvum
HLA-A*24:02 = experiment: IEDB peptide-MHC binding, purified MHC/competitive/fluorescence; filed as Kd, often an IC50 or EC50 that approximates it; ≥ and ≤ were set here for values at or beyond the usual limits of such assays
HLA-C*07:02 = experiment: IEDB peptide-MHC binding, purified MHC/direct/fluorescence; filed as Kd, often an IC50 or EC50 that approximates it; ≥ and ≤ were set here for values at or beyond the usual limits of such assays; details: source organism: Cryptosporidium parvum Iowa II
[6] = source organism: Toxoplasma gondii RH
[7] = source organism: Toxoplasma gondii
[8] = source organism: Camelpox virus M-96
[9] = source organism: Campylobacter jejuni subsp. jejuni 81116
[10] = source organism: Cryptosporidium parvum
[11] = source organism: Staphylococcus aureus subsp. aureus N315

Q: Which results are given for THADAHTQL?
A: Kd (HLA-A*02:01; [6]): ≥ 20 µM; Kd (HLA-A*02:03; [6]): ≥ 20 µM; Kd (HLA-A*02:11; [6]): ≥ 20 µM; Kd (HLA-A*02:12; [6]): ≥ 20 µM; Kd (HLA-A*02:16; [6]): ≥ 20 µM; Kd (HLA-A*02:19; [6]): ≥ 20 µM; Kd (HLA-A*03:01; [6]): ≥ 20 µM; Kd (HLA-A*24:03 [1]; [6]): ≥ 20 µM; Kd (HLA-A*26:01; [6]): ≥ 20 µM; Kd (HLA-A*29:02; [6]): ≥ 20 µM; Kd (HLA-A*69:01; [6]): ≥ 20 µM; Kd (HLA-B*15:01; [6]): ≥ 20 µM; Kd (HLA-B*15:17; [6]): ≥ 20 µM; Kd (HLA-B*18:01; [6]): ≥ 20 µM; Kd (HLA-B*27:03; [6]): ≥ 20 µM; Kd (HLA-B*46:01; [6]): ≥ 20 µM; Kd (HLA-B*51:01 [2]; [6]): ≥ 20 µM; Kd (HLA-B*57:01; [6]): ≥ 20 µM

Q: For LPPVVPPLI, which Kd (HLA-A*02:01; [7]) is on record?
A: ≥ 20 µM

Q: What about the Kd (HLA-A*02:03; [7]) of the same sequence?
A: ≥ 20 µM

Q: What about the Kd (HLA-A*02:11; [7]) of the same sequence?
A: ≥ 20 µM

Q: What about the Kd (HLA-A*02:12; [7]) of the same sequence?
A: ≥ 20 µM

Q: And the Kd (HLA-A*02:16; [7])?
A: ≥ 20 µM

Q: And the Kd (HLA-A*02:19; [7])?
A: ≥ 20 µM

Q: What about the Kd (HLA-A*03:01; [7]) of the same sequence?
A: ≥ 20 µM

Q: What about the Kd (HLA-A*23:01) of the same sequence?
A: ≥ 20 µM

Q: And the Kd (HLA-A*24:03 [1]; [7])?
A: ≥ 20 µM

Q: And the Kd (HLA-A*26:01; [7])?
A: ≥ 20 µM

Q: What about the Kd (HLA-A*29:02; [7]) of the same sequence?
A: ≥ 20 µM

Q: And the Kd (HLA-A*68:02)?
A: ≥ 20 µM

Q: And the Kd (HLA-A*69:01; [7])?
A: ≥ 20 µM

Q: And the Kd (HLA-B*15:01; [7])?
A: ≥ 20 µM

Q: What about the Kd (HLA-B*15:17; [7]) of the same sequence?
A: ≥ 20 µM

Q: And the Kd (HLA-B*18:01; [7])?
A: ≥ 20 µM

Q: And the Kd (HLA-B*27:03; [7])?
A: ≥ 20 µM

Q: And the Kd (HLA-B*39:01; [7])?
A: ≥ 20 µM

Q: And the Kd (HLA-B*46:01; [7])?
A: ≥ 20 µM

Q: And the Kd (HLA-B*51:01 [2]; [7])?
A: 0.201 µM

Q: What about the Kd (HLA-B*57:01; [7]) of the same sequence?
A: ≥ 20 µM

Q: YLYETYHLI was tested. Which Kd (HLA-A*02:01; [8]) did it give?
A: 0.002 µM

Q: What about the Kd (HLA-A*69:01; [8]) of the same sequence?
A: 0.0038 µM

Q: And the Kd (HLA-C*08:02)?
A: ≥ 20 µM

Q: And the Kd (HLA-C*12:03)?
A: 0.155 µM

Q: And the Kd (HLA-B*51:01 [3])?
A: 4 µM

Q: What does the source list for LPMIIGEPI?
A: Kd (HLA-C*05:01): ≥ 20 µM; Kd (HLA-B*07:02): 0.000255 µM; Kd (HLA-B*35:01): 0.0645 µM; Kd (HLA-B*51:01 [4]): 0.00117 µM; Kd (HLA-B*53:01): 0.0056 µM; Kd (HLA-B*54:01): 0.00157 µM

Q: Which Kd (HLA-C*14:02; source organism: Escherichia coli str. K-12 substr. MG1655) does the source give for AYPELACAV here?
A: ≤ 0.001 µM

Q: What about the Kd (HLA-A*24:03 [5]) of the same sequence?
A: 0.406 µM

Q: With YTNYPFLFF as the sequence, how does the Kd (HLA-A*02:01; [9]) read?
A: ≥ 20 µM

Q: And the Kd (HLA-A*02:03; [9])?
A: ≥ 20 µM

Q: What about the Kd (HLA-A*02:12; [9]) of the same sequence?
A: ≥ 20 µM

Q: And the Kd (HLA-A*02:16; [9])?
A: ≥ 20 µM

Q: What about the Kd (HLA-A*02:19; [9]) of the same sequence?
A: ≥ 20 µM

Q: What about the Kd (HLA-A*03:01; [9]) of the same sequence?
A: ≥ 20 µM

Q: What about the Kd (HLA-B*27:03; [9]) of the same sequence?
A: ≥ 20 µM

Q: And the Kd (HLA-B*39:01; [9])?
A: ≥ 20 µM

Q: What about the Kd (HLA-B*51:01 [2]; [9]) of the same sequence?
A: ≥ 20 µM

Q: And the Kd (HLA-C*03:03)?
A: 0.159 µM

Q: What about the Kd (HLA-C*15:02; source organism: Campylobacter jejuni subsp. jejuni 81-176) of the same sequence?
A: 0.025 µM

Q: What does the source list for RYMYIYLFI?
A: Kd (HLA-A*24:03 [1]; [10]): 0.004 µM; Kd (HLA-C*06:02): ≥ 20 µM; Kd (HLA-A*24:02; [10]): 0.0036 µM

Q: How did the Kd (HLA-C*14:02; source organism: Homo sapiens) turn out when YTASVVAAY was run?
A: 0.098 µM

Q: What about the Kd (HLA-C*15:02; source organism: Homo sapiens) of the same sequence?
A: ≥ 20 µM

Q: For RYSKKFKPEI, which Kd (HLA-A*24:02; source organism: Influenza A virus (A/Swine/Indiana/9K035/99 (H1N2))) is on record?
A: 0.033 µM

Q: What does the source list for NYKWWWFSF?
A: Kd (HLA-C*07:02): 0.181 µM; Kd (HLA-A*24:02; source organism: Cryptosporidium parvum Iowa II): 0.0023 µM

Q: For RTQAVIYAF, which Kd (HLA-A*24:03 [1]; source organism: Bacillus anthracis) is on record?
A: 0.0013 µM

Q: And the Kd (HLA-C*14:02; [11])?
A: 0.133 µM

Q: What about the Kd (HLA-C*15:02; [11]) of the same sequence?
A: 1.4 µM

Q: With KWMMAMRYPI as the sequence, how does the Kd (HLA-A*24:02; source organism: Influenza A virus (A/chicken/Fujian/25/00(H9N2))) read?
A: 0.0032 µM
